# Biological target: H-2D^b on RMA-S cells (mouse (endogenous in RMA-S))
# Assay: flow cytometry on cells
substance,measurement,value
"gp33-wt, LCMV wild-type peptide antigen (gp33 residues 33-41)",half-life of the peptide-MHC complex (Peptide stability),> 1 h

# Reference: article PMC2435421
